Assay results: IntAct's records for PubMed 32761762

B1: NAD-dependent protein deacetylase sirtuin-1 (Homo sapiens), Q96EB6 (parent)
chain: MADEAALALQPGGSPSAAGADREAASSPAGEPLRKRPRRDGPGLERSPGEPGGAAPEREVPAAARGCPGAAAAALWREAEAEAAAAGGEQEAQATAAAGEGDNGPGLQGPSREPPLADNLYDEDDDDEGEEEEEAAAAAIGYRDNLLFGDEIITNGFHSCESDEEDRASHASSSDWTPRPRIGPYTFVQQHLMIGTDPRTILKDLLPETIPPPELDDMTLWQIVINILSEPPKRKKRKDINTIEDAVKLLQECKKIIVLTGAGVSVSCGIPDFRSRDGIYARLAVDFPDLPDPQAMFDIEYFRKDPRPFFKFAKEIYPGQFQPSLCHKFIALSDKEGKLLRNYTQNIDTLEQVAGIQRIIQCHGSFATASCLICKYKVDCEAVRGDIFNQVVPRCPRCPADEPLAIMKPEIVFFGENLPEQFHRAMKYDKDEVDLLIVIGSSLKVRPVALIPSSIPHEVPQILINREPLPHLHFDVELLGDCDVIINELCHRLGGEYAKLCCNPVKLSEITEKPPRTQKELAYLSELPPTPLHVSEDSSSPERTSPPDSSVIVTLLDQAAKSNDDLDVSESKGCMEEKPQEVQTSRNVESIAEQMENPDLKNVGSSTGEKNERTSVAGTVRKCWPNRVAKEQISRRLDGNQYLFLPPNRYIFHGAEVYSDSEDDVLSSSSCGSNSDSGTCQSPSLEEPMEDESEIEEFYNGLEDEPDVPERAGGAGFGTDGDDQEAINEAISVKQEVTDMNYPSNKS
partner: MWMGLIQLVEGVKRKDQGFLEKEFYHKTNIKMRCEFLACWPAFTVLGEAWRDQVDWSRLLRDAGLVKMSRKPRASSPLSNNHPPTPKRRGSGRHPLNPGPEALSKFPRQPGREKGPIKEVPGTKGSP

Variants of: B1
Conditions: with csag2_human CSAG2, Q9Y5P2

With H363Y as the variant, how does the “effect of a mutation on the interaction” value read?
Its value is “decreasing interaction”.
